The text below walks through data of US20160272948A1.

Test [1] deals with Δ276 Δ301 Δ360 Δ463. As to the kind of experiment: ELISA, trimer on the plate without His-capture (panel 'plate 2G12'), OD 450 nm.
Test [2] has as its target Δ276 Δ360 Δ463. The description is as above.
For test [3], the target named is 16055 NFL TD CC GL2 trimer with N332 restored. Described as above.
For test [4], the target named is Δ276 Δ301 Δ360 Δ463. As to the kind of experiment: ELISA, His-captured trimer, OD 450 nm.
Test [5] concerns the target Δ276 Δ360 Δ463. As to the kind of experiment: ELISA, His-captured trimer, OD 450 nm.
For test [6], the target named is 16055 NFL TD CC GL2 trimer with N332 restored. As to the kind of experiment: ELISA, His-captured trimer, OD 450 nm.
Test [7] deals with Δ276 Δ301 Δ360 Δ463. Description: ELISA, OD 450 nm. Background: ELISA stands for enzyme-linked immunosorbent assay.
In test [8] the target is Δ276 Δ360 Δ463. Description: ELISA, OD 450 nm.
The target in test [9] is 16055 NFL TD CC GL2 trimer with N332 restored. Description: ELISA, OD 450 nm.
For test [10], the target named is JRFL NFL TD15 trimer (HIV-1 strain JRFL (subtype B)). Description: BLI (Octet), series from 200nM, 1:1 global fit; paragraph 228: IgG on anti-human IgG Fc sensors, trimer as analyte.
Test [11] addresses 16055 NFL TD8 trimer (HIV-1 strain 16055 (subtype C)). The test is described as above.
Test [12] shares this target. Description: BLI; IgG immobilized on a bio-sensor, trimer as analyte in solution, series from 400nM. A general note: Biolayer interferometry detects binding as a change in optical thickness at a sensor tip.
Test [13] addresses JRFL SOSIP TD. The description is as above.
For test [14], the target named is 16055 NFL TD8 CC trimer (HIV-1 strain 16055 (subtype C)). As to the kind of experiment: BLI; IgG immobilized on a bio-sensor, trimer as analyte in solution, series from 200nM.
For test [15], the target named is JRFL NFL TD15 trimer (HIV-1 strain JRFL (subtype B)). Description: ELISA, OD 450 nm; His-tagged trimer captured by anti-His mAb on the plate, antibody titrated.
The target of test [16] is 16055 NFL TD8 trimer (HIV-1 strain 16055 (subtype C)). The description is as above.
The target in another test is 16055 NFL TD GL L568G. As to the kind of experiment: ELISA, OD 450nm, mAb 5 to 0.00032 ug/mL on the trimer.
Test [17] concerns the target 16055 NFL TD8 trimer (HIV-1 strain 16055 (subtype C)). Description: BLI (Octet), IgG on anti-human Fc sensors, trimer as analyte, global fit 1:1.
Test [18] has as its target 16055 NFL TD8 CC trimer (HIV-1 strain 16055 (subtype C)). As to the kind of experiment: ELISA, OD 450nm; antibody titrated on the captured trimer.
Test [19] addresses JRFL NFL TD15 trimer (HIV-1 strain JRFL (subtype B)). The test is described as above.
The target in test [20] is 16055 NFL TD8 trimer (HIV-1 strain 16055 (subtype C)). Described as above.
The target is the same in test [21]. Description: ELISA, OD 450nm, mAb 5 to 0.00032 ug/mL on the trimer, without sCD4.
For test [22], the target named is 16055 NFL TD8 CC trimer (HIV-1 strain 16055 (subtype C)). Described as above.
Test [23] has as its target JRFL NFL TD15 trimer (HIV-1 strain JRFL (subtype B)). Description: BLI (Octet), IgG on anti-human Fc sensors, trimer as analyte, global fit 1:1.
Test [24] concerns the target JRFL NFL TD15 CC trimer (HIV-1 strain JRFL (subtype B)). As to the kind of experiment: ELISA, OD 450nm; antibody titrated on the captured trimer.
Test [25] addresses BG505 NFL CC trimer (HIV-1 strain BG505 (subtype A)). The description is as above.
The target of test [26] is 16055 NFL TD8 trimer (HIV-1 strain 16055 (subtype C)). Description: BLI; VRC03 Fab as analyte in solution (series from 6400nM), trimer immobilized on the sensor.
Test [27] addresses 16055 NFL TD8 CC trimer (HIV-1 strain 16055 (subtype C)). Described as above.
Test [28] concerns the target JRFL SOSIP TD. As to the kind of experiment: BLI; VRC03 Fab as analyte in solution (series from 400nM), trimer immobilized on the sensor.

For 2G12 (antibody), the EC50 (read off the curve) came out at 0.04 µg/mL in the test with Δ276 Δ301 Δ360 Δ463 [1]; 0.04 µg/mL with Δ276 Δ360 Δ463 [2]; 0.04 µg/mL in [3]; 0.1 µg/mL with Δ276 Δ301 Δ360 Δ463 [4]; 0.1 µg/mL with Δ276 Δ360 Δ463 [5]; 0.1 µg/mL in [6].
Take 8ANC131 (antibody): the EC50 (read off the curve) with Δ276 Δ301 Δ360 Δ463 [7] was determined as 0.03 µg/mL; with Δ276 Δ360 Δ463 [8], 0.03 µg/mL; in test [9] it was 0.1 µg/mL.
8ANC134 (antibody): the EC50 (read off the curve) with Δ276 Δ301 Δ360 Δ463 [7] is 0.03 µg/mL; with Δ276 Δ360 Δ463 [8], 0.03 µg/mL; in test [9], 0.1 µg/mL.
For the substance CD4-Ig2 (Fc fusion), the 50% effective concentration (EC50 (read off the curve)) (in the test with Δ276 Δ301 Δ360 Δ463 [7]; with Δ276 Δ360 Δ463 [8]; in test [9]) was 0.04 µg/mL each time.
In [9], HJ16 (antibody) registered an EC50 (read off the curve) of 0.02 µg/mL.
Regarding PG16 (antibody), the Kd in test [10] was 0.041 µM; in test [11], 0.029 µM; in test [12], 0.0296 µM; with JRFL SOSIP TD [13], 0.0424 µM; in [14], 0.0267 µM. Also, the dissociation rate constant (koff) in [10] was determined as 0.0032 s⁻¹; in [11], 0.0017 s⁻¹. Also, the values for the kon in [10] and in [11] were 77000 M⁻¹ s⁻¹ and 58000 M⁻¹ s⁻¹, respectively. The figures for the EC50 (read off the curve) (in [15]; in test [16]; with 16055 NFL TD GL L568G) were 0.03 µg/mL, 0.09 µg/mL and 0.07 µg/mL, respectively.
Take PGDM1400 (antibody): the Kd in [10] was 0.036 µM; in test [17], 0.021 µM; in [12] it was 0.0215 µM; with JRFL SOSIP TD [13], 2.84 µM; in test [14], 0.0217 µM. For the same substance, the values for the koff in [10] and in test [11] were 0.0011 s⁻¹ and 0.0015 s⁻¹, respectively. Moreover, the kon in [10] stood at 31000 M⁻¹ s⁻¹; in test [11], 73000 M⁻¹ s⁻¹. Further, the EC50 (read off the curve) worked out at 0.1 µg/mL in [18] and 0.06 µg/mL in [16].
As for PGT121 (antibody), the figures for the EC50 (read off the curve) in test [19] and in test [20] were 0.2 µg/mL and 0.07 µg/mL, respectively.
For PGT128 (antibody) the same measures were 0.05 µg/mL and 0.05 µg/mL.
As for PGT145 (antibody), the koff in test [10] stood at 0.00067 s⁻¹; in test [11] it was 0.0044 s⁻¹. Besides, the kon was 120000 M⁻¹ s⁻¹ in test [10] and 110000 M⁻¹ s⁻¹ in test [11]. The dissociation constant (Kd) in [11] was determined as 0.04 µM; in test [23], 0.005 µM; in [12], 0.0403 µM; with JRFL SOSIP TD [13] it was 0.00437 µM; in test [14] it was 0.0332 µM. Moreover, the EC50 (read off the curve) in test [21] is 0.07 µg/mL; in [22], 0.07 µg/mL; in [18], 0.04 µg/mL; in test [24], 0.04 µg/mL; in test [15], 0.2 µg/mL; in test [16] it was 0.1 µg/mL. For the same substance, the figures for the EC50 (read off the curve) (with Δ276 Δ301 Δ360 Δ463 [7]; in the test with Δ276 Δ360 Δ463 [8]; in [9]) were 0.01 µg/mL, 0.01 µg/mL and 0.02 µg/mL, respectively.
VRC01 (antibody): the concentration giving a half-maximal response (EC50 (read off the curve)) was 0.2 µg/mL in test [25], 0.03 µg/mL with Δ276 Δ301 Δ360 Δ463 [7], 0.03 µg/mL with Δ276 Δ360 Δ463 [8] and 0.1 µg/mL in test [9].
With VRC03 (antibody), the EC50 (read off the curve) turned out to be 0.2 µg/mL in test [24], 0.2 µg/mL in test [15], 0.04 µg/mL with Δ276 Δ301 Δ360 Δ463 [7] and 0.04 µg/mL with Δ276 Δ360 Δ463 [8].
Take VRC03 Fab: the Kd in [26] amounted to 0.168 µM; in [27], 0.606 µM; in the test with JRFL SOSIP TD [28], 0.0133 µM.
In [9], VRC05 (antibody) gave an EC50 (read off the curve) of 0.1 µg/mL.
In the case of VRC06b (antibody), the EC50 (read off the curve) in [24] came to 0.2 µg/mL; in test [15] it was 0.08 µg/mL; with Δ276 Δ301 Δ360 Δ463 [7], 0.03 µg/mL; with Δ276 Δ360 Δ463 [8] it was 0.03 µg/mL; in test [9] it was 0.1 µg/mL.
Substance VRC13 (antibody) gave an EC50 (read off the curve) in test [9] of 0.1 µg/mL.
As to VRC16 (antibody), the EC50 (read off the curve) stood at 0.03 µg/mL in the test with Δ276 Δ301 Δ360 Δ463 [7], 0.03 µg/mL in the test with Δ276 Δ360 Δ463 [8] and 0.05 µg/mL in test [9].
Consider VRC18b (antibody), for which the EC50 (read off the curve) with Δ276 Δ301 Δ360 Δ463 [7] and with Δ276 Δ360 Δ463 [8] was 0.04 µg/mL each time.

Broadly, the EC50 (read off the curve) is the concentration needed to bring the measured effect to its halfway point. Low readings indicate an effect from little substance, high ones a need for much substance. A word on the Kd: it is the constant that tells how readily two partners part at equilibrium. Low values mean tighter binding, high ones weaker binding. A word on the koff: it is a measure of how fast the partners let go of each other. For orientation: kon means the rate constant with which the complex forms.
